Assay results from the nanobody polyreactivity screen of Harvey et al. (2022).

Experiment: yeast display, Sf9 membrane polyspecificity reagent, FACS + sequencing; frameworks hold sequencing errors
Method in brief: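 A nanobody's polyreactivity label depends on the gate it was sorted from. Yeast display cells were stained with 10% biotinylated, detergent-solubilized Sf9 membrane reagent for 1 hour at 4 °C, enriched on streptavidin microbeads and sorted by FACS. The low and high (top ~1%) gates were set on anti-HA fluorescence for expression and streptavidin fluorescence for reagent binding.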

QVQLVESGGGLVQAGGSLRLSCAASGRTFYPNAMGWYRQAPGKEREFVARISDSGGSTYYADSVKGRFTISRDNAKNTVYLLMNSLKPEDTAVYYCAADYGDPRVNEYDYWGQGTQVTVSS
polyreactivity (PSR sort gate): low polyreactivity

QVQLVESGGGLVQAGGSLRISCAASGRIFRAYAMGWYRQAPGKERELVADIRSTGSTNYADSVKGRFTISRDNAKNTVYLQMNSLNPEDTAGYYCAARWRSLRFGSGFEYWGQGTQVTVSS
polyreactivity (PSR sort gate): high polyreactivity

QVQLEDSGGGLVQAGGSLRLSCAASGSIFYSNSMGWYRQAPGKERELVAAISSSGSRTYYADSVKGRFTISRDNAKNTVYLQMNSLKPEYTAVYYCSAVIRYTRSYDYWGQGTQLTVSS
polyreactivity (PSR sort gate): high polyreactivity

QVQLVESGGGLVQAGGSLRLSCAASGRTFGTYAMGWYRQAPGKERELVAAITGSGDRTYYADSVKGRFTISRDNAKNTVYLQMNSLKPEDTAVYYCAAYSDRSYGYWGQGTQVTVSS
polyreactivity (PSR sort gate): low polyreactivity

HVQLVESGGGLVQAGGSLRLSCAASGLTFAQYAMGWYRQAPGNERALVAAITGSGGSTYYADSVKGRFTISRDNAKNTVYLQLNSLKPEDTAVYYCNKLFYRWRIVDKYYYWGQGTQVTVSS
polyreactivity (PSR sort gate): high polyreactivity

QVQLVESGGGLVQAGGTLRLSCAASGSTFYSYAMGWYRQAPGKERELVAAISGRGGTTYYADSVKGRFTISRDNAKNTVYLQMNSLKPEDTAVYYCAAEGWDWWTDDDYWGQGTQVTVSS
polyreactivity (PSR sort gate): high polyreactivity

QVQLVESGGGLVQAGGSLRLSCAASGSIFKYYSMGWYRQAPGKERELVADISRSGGRTYYADSVKGRFTISRDNAKNTVYLQMNSLKPEDTAVYYCAALDTYQYFRILYGTYEYWGQGTQVTVSS
polyreactivity (PSR sort gate): high polyreactivity

QVQLVESGGGLVQAGGSLRLSCAASGSIFLAYAMGWYRQAPGKEREFVAAISFSDGSTYYADSVKGRFTISRDNAKNTVYLQMNSLKPEDTAVYYCNKGASPVDYDYWGQGTQVTVSS
polyreactivity (PSR sort gate): low polyreactivity

QVQLVESGGGLVQAGGSLRFSWAASGFIFRSNAMGWYRQAPGKERELVAAISKSGGSTYYADSVKGRFTISRDTAKKTVYLQMNSLKPEDTAVYYCFVDYYPYDYWGQGTQVTVSS
polyreactivity (PSR sort gate): low polyreactivity

QVQLVESGGGLVQAGGSLRLSCAASGNIYAYYAMGWYRQAPGKEWELVAAITDSGGNTFYADSVKGRFTISRDNAKNTVYLQMNSLKPVDTAVYYCAADPDGWGFVYPRYDYWGQGTQVTVSS
polyreactivity (PSR sort gate): low polyreactivity

QVQLVESGGGLVQAGGSLRLSCAASGRIFNRNAMGWYRQPPGKERELVAAISWSGTRTYYADSVKGRFTISRDNAKNTVYLQMNSLKPEDTAVYYCAAGASLYSYYGFLPYDYWGQGTQVTVSS
polyreactivity (PSR sort gate): high polyreactivity

QVQLVESGGGLVQAGGSLRVSCAASGSTFVYYAMGWYRQAPGKERELVAAITASGGGTYYADSVKGRFTISRDNAKNTVYLQMNSLKPEDTAVYYCNRGYDYWGQGTQVTVSS
polyreactivity (PSR sort gate): low polyreactivity

QVQLVESGGGLVQAGGSLRLSCAASGRIFAYYTMGWYRQAPGKERELVAAITNGGRTSYADSVKGRFTISRDNAKNTVYLQMNSLKPEDTAVYYCNAQQYRWPRVYYNYNYWGQGTQVTVSS
polyreactivity (PSR sort gate): high polyreactivity

QVQLVESGGGLVQAGGSLRLSCAASGITFIPNAMGWYRQAPGKERELVAAISISGGRTYYADSVKGRFTISRDNAKNPVYLQMNSLKPEDTAVYYCAADRADFFVIRTIDPYDYWGQGTQVTVSS
polyreactivity (PSR sort gate): low polyreactivity

QVQLVESGGGLVQAGGSLRLSCAASGSIFLLYAMGWYRQAPGKERELVARISWSGDNTRYADSVKGRFTISRDNEKNTVYLQMNSLKPEDTAFYYCNAVTFSWDYGYWGQGSQVTVSS
polyreactivity (PSR sort gate): low polyreactivity

QVQLVESGVGLVQAGGSLRLSCAASGSTFNYYAMGWYRQAPGKERELVAAISSRSSRTFYADSVKGRFTISRDNAKNTVYLQMHSVKPEDTAVYYCAVKKSAPDGDYWGQGTQVTVSS
polyreactivity (PSR sort gate): high polyreactivity

QVQLVESGGGLVQAGGSLRLSCAASGSIFDIYGMGWYRQAPGKERELVASISGGAGSTNYADSVKGRFTISRDTAKNTVYLQMNWLKPEDTAVYYCAAEVYVPDYFQHKFDVEYEYWGQGTQVTVSS
polyreactivity (PSR sort gate): low polyreactivity
